This note sets out measurements from US20150266962A1.

In assay [1] the target is human IL-13Rα2 on the surface of human tumour cell lines (human) (UniProt Q14627). Description: FACS, 10 µg/mL, U87MG (glioblastoma) cells.
Assay [2] has the same target. The assay can be described thus: FACS, 10 µg/mL, A498 (renal) cells.
For assay [3] the target is unchanged. Description: FACS, 10 µg/mL, Hs766T (pancreatic) cells.
The target is the same in assay [4]. The assay can be described thus: FACS, 10 µg/mL, A375 (melanoma) cells.
Assay [5] has the same target. The assay can be described thus: FACS, 10 µg/mL, H460 (lung, cisplatin resistant) cells. A general note: A flow cytometer gives signals particle by particle.
For assay [6] the target is unchanged. Description: cell-based or functional assay.
Assay [7] shares this target. The assay can be described thus: FACS, 10 µg/mL, SW626 (ovarian) cells.
Assay [8] shares this target. Description: FACS, 10 µg/mL, PC3MM2 (prostate) cells.
For assay [9] the target is unchanged. The assay can be described thus: FACS on A375 cells.
Assay [10] shares this target. Description: competition ELISA on A375 cells, competitor biotinylated ch07. (ELISA stands for enzyme-linked immunosorbent assay.)
Assay [11] shares this target. The assay can be described thus: cell-based ELISA on A375 cells (given as ED50).

Where a chain is given by its changes, count along the chain named.

Chain of human IL-13Rα2 on the surface of human tumour cell lines (human) (Q14627 27-380): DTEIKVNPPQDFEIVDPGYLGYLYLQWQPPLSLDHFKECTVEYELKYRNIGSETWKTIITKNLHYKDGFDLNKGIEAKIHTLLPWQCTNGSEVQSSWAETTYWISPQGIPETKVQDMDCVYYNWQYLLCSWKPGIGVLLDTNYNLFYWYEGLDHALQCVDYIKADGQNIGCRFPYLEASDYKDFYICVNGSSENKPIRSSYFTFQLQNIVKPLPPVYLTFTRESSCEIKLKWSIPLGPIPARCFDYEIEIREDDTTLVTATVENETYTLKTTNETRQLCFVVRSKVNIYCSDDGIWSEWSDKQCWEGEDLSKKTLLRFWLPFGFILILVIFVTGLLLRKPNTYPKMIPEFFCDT

B1: murine anti-IL-13Rα2 antibody mu08 (antibody, mouse IgG1, V domains shown)
VH: EVQLVESGGDLVRPGGSLQLSCAASGFTFSRNGMSWVRQTPDRRLEWVATVSSGGSYIYYADSVKGRFTISRDNARNTLYLQMSSLKSEDTAMYYCARQGTTALATRFFDVWGAGTTVTVSS
VL: DIVMTQSHKFISTSVGDRVSITCKASQDVGTAVAWYQQIPGQSPKLLIYSASYRSTGIPDRFTGSGSGTDFSFIISSVQAEDLALYYCQHHYSAPWTFGGGTTLDIK
Turning to B1, in assay [1], the Mean Fluorescent Intensity amounted to 62000. Moreover, the Mean Fluorescent Intensity in assay [2] worked out at 5000. Also, in assay [3], the Mean Fluorescent Intensity came out at 14000. In assay [4], this molecule yielded a Mean Fluorescent Intensity of 46000. Further, in [5], the Mean Fluorescent Intensity came out at 22000. In addition, in assay [6], the % internalization, 15 min, A375 came out at 68%; the % internalization, 15 min, H460R came to 55.9%; the % internalization, 15 min, Hs766T is 64.1%; the % internalization, 15 min, PC3MM2 amounted to 81.9%. Further, in [6], the % internalization, 4 hours, A375 was found to be 61.8%; the % internalization, 4 hours, H460R amounted to 47.4%; the % internalization, 4 hours, Hs766T amounted to 76.3%; the % internalization, 4 hours, PC3MM2 amounted to 41.6%. Also, the internalized after a 1 hour incubation with A375 cells at 37° C. in [6] stood at 31%. In addition, in assay [7], the Mean Fluorescent Intensity was 8000. The Mean Fluorescent Intensity in [8] stood at 72000.

B2: chimeric antibody ch08 (antibody, human IgG1, V domains shown)
VH: B1 VH
VL: B1 VL
The molecule B2 showed an EC50 in assay [9] of 5.64 nM.

B3: hu07 heavy chain v1.5 / light chain v1.0 (antibody, IgG1, V domains shown)
VH: EVQLVESGGGLVQPGGSLRLSCAASGFSLTKYGVHWVRQAPGKGLEWVGVKWAGGSTDYNSALMSRFTISKDNAKNSLYLQMNSLRAEDTAVYYCARDHRDAMDYWGQGTLVTVSS
VL: DIQMTQSPSSLSASVGDRVTITCTASLSVSSTYLHWYQQKPGKAPKLLIYSTSNLASGVPSRFSGSGSGTDFTLTISSLQPEDFATYYCHQYHRSPLTFGGGTKVEIK
Take B3: in assay [10], the IC50 amounted to 12.3 nM. Also, the EC50 in [11] is 1.17 nM.

B4: hu07 heavy chain v1.5 / light chain v1.1 (antibody, IgG1, V domains shown)
VH: B3 VH
VL: B3 VL with K43S, A44S, D71S
Take B4: the IC50 in assay [10] came out at 19 nM. For the same molecule, the EC50 in assay [11] turned out to be 1.29 nM.

B5: humanized antibody hu08 v1.0 HC/v1.1 LC (antibody, IgG1, V domains shown)
VH: EVQLVESGGGLVQPGGSLRLSCAASGFTFSRNGMSWVRQAPGKGLEWVATVSSGGSYIYYADSVKGRFTISRDNAKNSLYLQMNSLRAEDTAVYYCARQGTTALATRFFDVWGQGTLVTVSS
VL: DIQMTQSPSSLSASVGDRVTITCKASQDVGTAVAWYQQIPGKAPKLLIYSASYRSTGVPDRFSGSGSGTDFSFIISSLQPEDFATYYCQHHYSAPWTFGGGTKVEIK
B5: in [9], the EC50 was determined as 6.52 nM.

B6: humanized antibody hu08 v1.1 HC/v1.1 LC (antibody, IgG1, V domains shown)
VH: B5 VH with A40T, G42D, G44R, N84S
VL: B5 VL
As for B6, in assay [9], the EC50 amounted to 5.16 nM.

B7: humanized antibody hu08 v1.1 HC/v1.0 LC (antibody, IgG1, V domains shown)
VH: B5 VH with A40T, G42D, G44R, N84S
VL: B5 VL with I39K, D60S, S72T, F73L, I74T
On to B7, for which the concentration for a half-maximal effect (EC50) in assay [9] was 4.15 nM.

B8: murine anti-IL-13Rα2 antibody mu07 (antibody, mouse IgG1, V domains shown)
VH: QVQLKESGPGLVAPSQSLSINCTVSGFSLTKYGVHWIRQSPGKGLEWLGVKWAGGSTDYNSALMSRLTISKDNNKSQVFLKMNSLQSDDSAMYYCARDHRDAMDYWGQGTSVTVSS
VL: QVVLTQSPAIMSASPGERVTMTCTASLSVSSTYLHWYHQKPGSSPKLWIYSTSNLASGVPARFSGSGSGTSYSLTISSMEAEDAATYYCHQYHRSPLTFGSGTKLELK
As to B8, the Mean Fluorescent Intensity in assay [1] was found to be 61000. Further, the Mean Fluorescent Intensity in assay [2] was determined as 13000. Further, in assay [3], the Mean Fluorescent Intensity came out at 13000. For the same molecule, in assay [4], the Mean Fluorescent Intensity was 53000. Further, the Mean Fluorescent Intensity in [5] was determined as 28000. Besides, in assay [6], the % internalization, 15 min, A375 amounted to 63.1%; the % internalization, 15 min, H460R stood at 74.4%; the % internalization, 15 min, Hs766T was found to be 69.6%; the % internalization, 15 min, PC3MM2 is 88.6%. In assay [6], the % internalization, 4 hours, A375 came out at 38.1%; the % internalization, 4 hours, H460R worked out at 38.4%; the % internalization, 4 hours, Hs766T came out at 69%; the % internalization, 4 hours, PC3MM2 came to 50.3%. Further, the internalized after a 1 hour incubation with A375 cells at 37° C. in [6] was found to be 38%. The molecule also had a Mean Fluorescent Intensity in [7] of 9000. Moreover, the Mean Fluorescent Intensity in assay [8] came out at 84000.

B9: hu07 heavy chain v1.5 paired with chimeric light chain (antibody, V domains shown)
VH: B3 VH
VL: B8 VL
B9 came in with an IC50 in [10] of 7.67 nM. In assay [11], this molecule gave an EC50 of 0.87 nM.

B10: chimeric antibody ch07 (antibody, human IgG1, V domains shown)
VH: B8 VH
VL: B8 VL
As to B10, the IC50 in assay [10] came to 17.3 nM. Besides, the EC50 in [11] stood at 0.85 nM.

For orientation: EC50 means the concentration needed to bring the measured effect to its halfway point. A word on the IC50: it is the midpoint of a concentration-inhibition curve. Higher therefore signals weaker potency.
